Measurements taken from article PMC7611853 (Nature cell biology, 2021).

B1: Cdc19^WT (wild-type pyruvate kinase Cdc19, strep-tagged, recombinant) (enzyme, S. cerevisiae, UniProt P00549 1-500, looked up)
chain: MSRLERLTSLNVVAGSDLRRTSIIGTIGPKTNNPETLVALRKAGLNIVRMNFSHGSYEYHKSVIDNARKSEELYPGRPLAIALDTKGPEIRTGTTTNDVDYPIPPNHEMIFTTDDKYAKACDDKIMYVDYKNITKVISAGRIIYVDDGVLSFQVLEVVDDKTLKVKALNAGKICSHKGVNLPGTDVDLPALSEKDKEDLRFGVKNGVHMVFASFIRTANDVLTIREVLGEQGKDVKIIVKIENQQGVNNFDEILKVTDGVMVARGDLGIEIPAPEVLAVQKKLIAKSNLAGKPVICATQMLESMTYNPRPTRAEVSDVGNAILDGADCVMLSGETAKGNYPINAVTTMAETAVIAEQAIAYLPNYDDMRNCTPKPTSTTETVAASAVAAVFEQKAKAIIVLSTSGTTPRLVSKYRPNCPIILVTRCPRAARFSHLYRGVFPFVFEKEPVSDWTDDVEARINFGIEKAKEFGILKKGDTYVSIQGFKAGAGHSNTLQVSTV
B2: Cdc19^ΔFBP (Cdc19 point-mutant T403E unable to bind FBP, strep-tagged, recombinant) (enzyme, S. cerevisiae, UniProt P00549 1-500, looked up)
chain: MSRLERLTSLNVVAGSDLRRTSIIGTIGPKTNNPETLVALRKAGLNIVRMNFSHGSYEYHKSVIDNARKSEELYPGRPLAIALDTKGPEIRTGTTTNDVDYPIPPNHEMIFTTDDKYAKACDDKIMYVDYKNITKVISAGRIIYVDDGVLSFQVLEVVDDKTLKVKALNAGKICSHKGVNLPGTDVDLPALSEKDKEDLRFGVKNGVHMVFASFIRTANDVLTIREVLGEQGKDVKIIVKIENQQGVNNFDEILKVTDGVMVARGDLGIEIPAPEVLAVQKKLIAKSNLAGKPVICATQMLESMTYNPRPTRAEVSDVGNAILDGADCVMLSGETAKGNYPINAVTTMAETAVIAEQAIAYLPNYDDMRNCTPKPTSTTETVAASAVAAVFEQKAKAIIVLSESGTTPRLVSKYRPNCPIILVTRCPRAARFSHLYRGVFPFVFEKEPVSDWTDDVEARINFGIEKAKEFGILKKGDTYVSIQGFKAGAGHSNTLQVSTV

Columns and labels:
[1] = target: the molecule itself; assay: negative-stain TEM, circular dichroism and amyloid-dye
centrifugation = target: the molecule itself; assay: centrifugation

Protein	binding result [1]	binding result (centrifugation)
B1	binds	
B2		binds
